Patent US20230357395A1

Target: NKp30 (species and construct not stated) (UniProt O14931)
Assay: ELISA
Conditions: ligand

Chain of B7-H6 (Q68D85 25-262): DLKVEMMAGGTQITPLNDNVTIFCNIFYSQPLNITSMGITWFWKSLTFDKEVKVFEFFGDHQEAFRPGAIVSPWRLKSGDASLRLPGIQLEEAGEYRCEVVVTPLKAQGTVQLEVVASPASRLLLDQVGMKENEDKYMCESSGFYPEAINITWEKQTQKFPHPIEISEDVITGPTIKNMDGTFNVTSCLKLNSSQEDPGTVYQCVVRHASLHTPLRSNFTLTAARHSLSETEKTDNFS
Chain of NKp30 (species and construct not stated) (O14931 19-135): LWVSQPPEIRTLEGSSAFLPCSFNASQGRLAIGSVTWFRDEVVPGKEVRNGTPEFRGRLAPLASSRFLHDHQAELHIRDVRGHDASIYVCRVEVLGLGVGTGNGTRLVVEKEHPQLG

Question: With B7-H6 (from UniProt Q68D85 25-262) as the substance, how does the Kd read?
Answer: The Kd was 6.56 nM.
